Results on two molecules are retold here after paper PMC1420652, “Purified Wnt5a Protein Activates or Inhibits β-Catenin–TCF Signaling Depending on Receptor Context” (PLoS Biology, 2006).

This assay deals with T1, purified Wnt5a protein (mouse) (mouse, UniProt P22725 62-380).
T1 construct: Wnt5a, mouse; The protein needs detergent to stay in solution; also called mWnt5a
T1 sequence (looked up): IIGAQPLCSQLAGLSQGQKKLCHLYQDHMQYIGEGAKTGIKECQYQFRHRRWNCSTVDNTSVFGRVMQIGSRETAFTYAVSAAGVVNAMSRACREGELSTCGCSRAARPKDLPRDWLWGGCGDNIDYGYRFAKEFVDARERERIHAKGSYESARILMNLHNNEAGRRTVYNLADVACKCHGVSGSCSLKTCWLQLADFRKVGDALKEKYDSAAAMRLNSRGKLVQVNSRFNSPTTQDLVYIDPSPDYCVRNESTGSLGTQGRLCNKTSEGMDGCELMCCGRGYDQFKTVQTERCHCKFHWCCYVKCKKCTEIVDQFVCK
The assay can be described thus: pull-down; purified CRD-IgG proteins bound to protein A-Sepharose beads (4 h, 4 °C), incubated overnight at 4 °C with purified Wnt5a protein, washed 4 times with TNT buffer (50 mM Tris-HCl, 150 mM NaCl, 1% Triton X-100), Western blot. The following applies: both partners purified. A general note: In western blotting, separated proteins are transferred to a membrane and probed.

B1: mRor2 CRD-IgG (Fc fusion)
chain: not shown
notes: source: 293 cells stably secreting the protein, purified from serum-free conditioned media (protein A column); not shown: immunoglobulin heavy chain domain (IgG), C-terminal, kept
B1: the binding result is on record as “binds”.

B2: mRor2 NT CRD-IgG (Fc fusion)
chain: not shown
notes: signal peptide in the construct; source: 293 cells stably secreting the protein, purified from serum-free conditioned media (protein A column); not shown: immunoglobulin heavy chain domain (IgG), C-terminal, kept
Regarding B2, the binding result was “binds”.
